Here are results for one compound from publication PMC9549473, “Triple-FRET multi-purpose fluorescent probe for three-protease detection” (RSC Advances, 2022).

In general, solubility refers to the concentration that dissolves in the medium under given conditions.

Non-standard residues stand in square brackets, D forms with d. Residues, ends and D or L forms follow the SMILES beside them. Groups on a side chain read outwards from the residue. *: point of attachment. RhodamineB = CCN(CC)c1ccc2c(-c3ccccc3C(=O)*)c3ccc(=[N+](CC)CC)cc-3oc2c1; X1 = CC[N+](CC)=c1ccc2c(-c3ccccc3C(=O)*)c3c(oc-2c1)-c1ccc(N(C)C)cc1CC3; X3 = CCN(CC)c1ccc2cc(C(=O)N[C@@H](CCCCN*)C(=O)O)c(=O)oc2c1; X2 = O=C(c1ccccc1-c1c2ccc(=O)cc-2oc2cc(O)ccc12)*; AEEA = NCCOCCOCC(=O)O; Sar = CNCC(=O)O Bounds are passed on as bounds.

For one series, the target named is T1, caspase-8 (Homo sapiens, UniProt Q14790).
T1 construct: Caspase-8 (human, recombinant, active, 5000 units per mg protein); purchased Enzo Life Sciences, Inc. (New York, USA)
Kind of series: LC-MS analysis of the probe cleaved by caspase-8. It counts as biochemical. The note with it: LC-MS of cleavage fragments.

For another series, the target named is T2, chymotrypsin (Bos taurus, UniProt P00766).
T2 construct: α-chymotrypsin (bovine pancreas, TLCK treated, type VII, ≥40 units per mg protein); purchased Sigma-Aldrich (Steinheim, Germany); host or cells: bovine pancreas (tissue-derived)
In words: LC-MS analysis of the probe cleaved by chymotrypsin. The class given is biochemical, bovine. To be noted: LC-MS of cleavage fragments; chymotrypsin 2.5 µg/mL, 2 hours. On the procedure: (§1) Following the successful development of the methodology for the separate detection of individual proteases in a sample, we decided to investigate and evaluate the possibilities of simultaneous detection of multiple enzymes. […] Consequently, some potential ambiguities and drawbacks were expected from the perspective of nonspecific cleavage of the 4-dye substrate 1 by chymotrypsin. The experiments of the two-enzyme detection were performed with all three theoretically possible pairs of the considered proteases in their low concentrations.
Figure S10: LC-MS analysis of the 4-dye probe cleaved by chymotrypsin (2.5 µg/mL, 2 hours).
Fragment 1 (Rt = 1.46 min) […]

Series [1] addresses T3, α-chymotrypsin (bovine pancreas, TLCK treated, type VII) (Bos taurus, UniProt P00766).
T3 construct: α-chymotrypsin (bovine pancreas, TLCK treated, type VII, ≥40 units per mg protein); purchased Sigma-Aldrich (Steinheim, Germany); host or cells: bovine pancreas (tissue-derived)
Kind of series: Single protease detection with the triple-FRET 4-dye probe: chymotrypsin. The note with it: 5 μM probe, Tris–HCl pH 8.0, 37 °C, 45 min, λexc 425 nm, three parallels. It counts as biochemical. The text has this:
(§2) Trypsin (bovine pancreas, TPCK treated, ≥10 000 BAEE units per mg protein) and α-chymotrypsin (bovine pancreas, TLCK treated, type VII, ≥40 units per mg protein) were ordered from Sigma-Aldrich (Steinheim, Germany). Caspase-8 (human, recombinant, active, 5000 units per mg protein) was provided by Enzo Life Sciences, Inc. (New York, USA). All enzyme species were obtained in the form of lyophilized white to off-white powders. They were reconstituted according to the providers' instructions, aliquoted in Eppendorf tubes, and finally stored at −80 °C in a deep freezer (Arctiko, Esbjerg Kommune, Denmark). […]
(§3) The appropriate amount of the 4-dye probe (1) was dissolved in 950 μL of Tris–HCl buffer. […] Afterwards, the fluorescence emission spectrum upon excitation with the light source of 425 nm was measured at the time 0 using a fluorescence spectrometer (Cary Eclipse, Agilent Technologies, Santa Carla, CA, USA). […] Fluorescence emission responses were then repeatedly measured at the times 2, 5, 8, 12, 16, 20, 25, 30, 35, 40, and 45 min. During the entire period of the experiment, a fluorimeter cuvette was placed in a cell holder preheated to 37 °C, and located inside a fluorescence spectrometer.
(§4) Additionally, the rules for individual protease recognition could be graphically presented, using fluorescence emission ratios of suitable fluorophores measured at particular times. […]

Series [2] concerns the target T4, Caspase-8 (human, recombinant, active) (Homo sapiens, UniProt Q14790).
T4 construct: Caspase-8 (human, recombinant, active, 5000 units per mg protein); purchased Enzo Life Sciences, Inc. (New York, USA)
In words: Single protease detection with the triple-FRET 4-dye probe: caspase-8. It counts as biochemical. To be noted: 5 μM probe, Tris–HCl pH 8.0 with DTT 10 mM, 37 °C, 45 min, λexc 425 nm, three parallels.
From the text: as §2, §3, §4

The nature of series [3]: Stability in buffer solution without enzyme (fluorescence responses, blank sample). It counts as physicochemical. To be noted: no enzyme, 5 μM probe, λexc 425 nm. On the procedure: Enzyme assays were carried out in 0.1 M Tris–HCl buffer solution in ultrapure water, with the addition of NaCl (25 mM), EDTA (5 mM) and glycerol (2.5% v/v). The pH of the media (pH = 8.0) was adjusted by gradual dropwise addition of concentrated NaOH aqueous solution.
The appropriate amount of the 4-dye probe (1) was dissolved in 950 μL of Tris–HCl buffer. The resulting solution was placed into a plastic fluorimeter cuvette and preheated to 37 °C. Afterwards, the fluorescence emission spectrum upon excitation with the light source of 425 nm was measured at the time 0 using a fluorescence spectrometer (Cary Eclipse, Agilent Technologies, Santa Carla, CA, USA). Then 20 μL of 1 mM HCl with/without enzyme (trypsin or chymotrypsin) and 30 μL of physiological saline solution with/without enzyme (caspase-8) were added, resulting in a final volume of 1 mL of 5 μM 4-dye substrate (1). In the case of caspase-8, DL-dithiothreitol (10 mM) was also present in a buffer. Fluorescence emission responses were then repeatedly measured at the times 2, 5, 8, 12, 16, 20, 25, 30, 35, 40, and 45 min. During the entire period of the experiment, a fluorimeter cuvette was placed in a cell holder preheated to 37 °C, and located inside a fluorescence spectrometer.
As the three target proteases, trypsin, chymotrypsin, and caspase-8 were considered. […] During the biological testing, the emission responses of all four dyes were monitored throughout the entire period of the experiment. The assay conditions and parameters were established based on our practical observations, theoretical facts, and previous experience.[12,28,29] To obtain a uniform incubation medium suitable for all three proteases detection, the appropriate conditions for trypsin and chymotrypsin sensing were combined with those suitable for caspase-8 screening. As a result, EDTA, NaCl and glycerol were added to the Tris–HCl buffer solution, and its pH value was set to 8.0. After dissolving the intact 4-dye probe (1) in that way prepared buffer, the emission responses of all four fluorophores were monitored within 45 min of incubation at 37 °C.

The target in series [4] is T5, Trypsin (bovine pancreas, TPCK treated) (Bos taurus, UniProt P00760).
T5 construct: Trypsin (bovine pancreas, TPCK treated, ≥10 000 BAEE units per mg protein); purchased Sigma-Aldrich (Steinheim, Germany); host or cells: bovine pancreas (tissue-derived)
T5 sequence (P00760 24-246): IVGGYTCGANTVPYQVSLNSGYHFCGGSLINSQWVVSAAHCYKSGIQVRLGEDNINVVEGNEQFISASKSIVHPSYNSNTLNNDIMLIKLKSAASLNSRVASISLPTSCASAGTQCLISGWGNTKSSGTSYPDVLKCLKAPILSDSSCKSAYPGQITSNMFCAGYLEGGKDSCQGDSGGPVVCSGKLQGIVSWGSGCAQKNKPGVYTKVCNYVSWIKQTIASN
In words: Single protease detection with the triple-FRET 4-dye probe: trypsin. To be noted: 5 μM probe, Tris–HCl pH 8.0, 37 °C, 45 min, λexc 425 nm, three parallels. The class given is biochemical.
From the text: as §2, §3, §4

A further series deals with T6, trypsin (Bos taurus, UniProt P00760).
T6 construct: Trypsin (bovine pancreas, TPCK treated, ≥10 000 BAEE units per mg protein); purchased Sigma-Aldrich (Steinheim, Germany); host or cells: bovine pancreas (tissue-derived)
T6 sequence (P00760 24-246): T5 sequence (P00760 24-246)
Kind of series: LC-MS analysis of the probe cleaved by trypsin. It counts as biochemical, bovine. To be noted: LC-MS of cleavage fragments. Here is the method:
as §1

Series [5] in a line: Solubility in aqueous media (Tris–HCl buffer). The class given is physicochemical. The note with it: Tris–HCl buffer pH 8.0, from solid, read-out: solubility: stock solution that could be promptly and efficiently prepared. Here is the method:
(§5) Due to its size and complexity, the 4-dye probe (1) was also briefly examined from the solubility in aqueous media point of view. It turned out that at least 0.5 mM stock solution of the target substrate (1) in Tris–HCl buffer (pH = 8.0) could be promptly and efficiently prepared. For comparison, a solution of a hundredfold lower concentration (5 μM) of the 4-dye probe (1) in the same buffer media was utilized in the biological assays. The relatively high solubility of the substrate (1) could be attributed to its structure (Fig. 1), comprising six polyethylene glycol-based (PEG) spacers and two charged fluorophores (Rhodamine B and HN6). Moreover, three terminal carboxyl groups of the peptide backbone are instantly turned into corresponding carboxylate salts in a basic buffer environment, contributing to the solubility of the 4-dye probe (1) in aqueous media. Afterwards, its stability was taken into consideration. The dark blue powder obtained after freeze-drying was dissolved in an appropriate volume of Tris–HCl buffer (pH = 8.0), and shortly after that, LC-MS analysis was performed. The process was repeated a few times within one month.

Series [6] in a line: Storage stability of the solid, LC-MS. It counts as physicochemical. The note with it: solid powder stored at −80 °C; dissolved to 50 μM in Tris–HCl pH 8.0 and analysed by LC-MS, repeated over 30 days. On the procedure:
The isolated 4-dye substrate (1) was characterized by LC-MS analysis and HRMS. Its final purity was determined based on LC-MS analysis, testing different analytical columns, mobile phases, gradients and elution times (ESI – Fig. S6 and S7 ^†). For stability testing, the 4-dye probe (1) in the form of powder (stored at −80 °C) was dissolved in an appropriate volume of Tris–HCl buffer (pH = 8.0) to obtain a 50 μM solution and subsequently analyzed by LC-MS. This process was repeated a few times over 30 days.
as §5, with “Afterwards, its stability was taken into consideration. The dark blue powder obtained after freeze-drying was dissolved in an appropriate volume of Tris–HCl buffer (pH = 8.0), and shortly after that, LC-MS analysis was performed. The process was repeated a few times within one month.” left out

Where [7] appears, read: 16 min vs 0 min, Tris–HCl pH 8.0, 37 °C, mean of 3 parallels.
The mark [8] stands for this setting: 45 min vs 0 min, Tris–HCl pH 8.0, 37 °C, mean of 3 parallels.

T1 sequence (Q14790 217-374 limits assumed): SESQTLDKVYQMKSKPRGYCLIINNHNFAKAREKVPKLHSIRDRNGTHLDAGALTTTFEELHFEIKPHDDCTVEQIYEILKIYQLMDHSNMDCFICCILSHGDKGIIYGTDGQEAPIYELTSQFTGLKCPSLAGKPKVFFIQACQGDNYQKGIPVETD
T1 sequence (Q14790 385-479 limits assumed): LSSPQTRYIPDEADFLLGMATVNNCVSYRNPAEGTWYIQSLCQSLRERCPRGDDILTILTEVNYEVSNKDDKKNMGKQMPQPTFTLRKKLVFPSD
T4 sequence (Q14790 217-374 limits assumed): as the sequence (Q14790 217-374 limits assumed) above
T4 sequence (Q14790 385-479 limits assumed): as the sequence (Q14790 385-479 limits assumed) above

Regarding `CCN(CC)c1ccc2cc(C(=O)N[C@@H](CCCCNC(=O)COCCOCCNC(=O)[C@H](C)NC(=O)[C@H](CC(=O)O)NC(=O)[C@@H](NC(=O)[C@H](CCC(=O)O)NC(=O)[C@H](CC(C)C)NC(=O)COCCOCCNC(=O)[C@H](CCCCNC(=O)CN(C)C(=O)c3ccccc3-c3c4ccc(=O)cc-4oc4cc(O)ccc34)NC(=O)COCCOCCNC(=O)[C@H](C)NC(=O)[C@H](CCCCN)NC(=O)[C@H](C)NC(=O)COCCOCCNC(=O)[C@H](CCCCNC(=O)CN(C)C(=O)c3ccccc3-c3c4ccc(=[N+](CC)CC)cc-4oc4cc(N(CC)CC)ccc34)NC(=O)COCCOCCNC(=O)[C@H](C)NC(=O)[C@H](Cc3ccccc3)NC(=O)[C@H](C)NC(=O)COCCOCCNC(=O)CN(C)C(=O)c3ccccc3-c3c4ccc(=[N+](CC)CC)cc-4oc4c3CCc3cc(N(C)C)ccc3-4)[C@@H](C)O)C(=O)O)c(=O)oc2c1` [4-dye probe (1)] (X1-[Sar][AEEA]AFA[AEEA]K([Sar-RhodamineB])[AEEA]AKA[AEEA]K([Sar-X2])[AEEA]LETDA[AEEA]-X3), the “sites of the probe cleaved by caspase-8” value on caspase-8 is “cleave only their own recognizable sites”. Further, the “sites of the probe cleaved by chymotrypsin” value at chymotrypsin is “both chymotrypsin and trypsin linkers were cleaved”. Moreover, the “lowest detectable concentration of chymotrypsin” value in [1] came to 0.2 µg/mL. In addition, the “lowest detectable concentration of caspase-8” value in series [2] was 2 U mL^−1. For the same compound, in series [3] (Tris–HCl pH 8.0 with NaCl, EDTA, glycerol, 37 °C, 45 min), the “fluorescence intensities of all four dyes during incubation in buffer (stability in buffer)” value is listed as “practically unchanged”. Further, in series [3] (setting [7]), the “DEAC (I16/I0)” value turned out to be 1.03, the “DEAC(I16/I0)/FL(I16/I0)” value came to 0.99, the “FL (I16/I0)” value was 1.04 and the “HN6 (I16/I0)” value is listed as 0.97. Besides, in series [3] (setting [8]), the “DEAC (I45/I0)” value turned out to be 1.05, the “DEAC(I45/I0)/FL(I45/I0)” value amounted to 0.97, the “FL (I45/I0)” value is reported as 1.08 and the “HN6 (I45/I0)” value is 0.97. The “lowest detectable concentration of trypsin” value in [4] was found to be 0.5 ng/mL. Besides, the “sites of the probe cleaved by trypsin” value on trypsin is listed as “cleave only their own recognizable sites”. In addition, the solubility in [5] was at least 500 µM. The “stability on storage (comparable LC-MS chromatograms and peak areas)” value in series [6] is listed as “at least 30 days”.
